The values that follow come from patent US20240254227A1 (Alector, published 2024).

Numbering of substitutions follows the chain as printed.

The labels stand for the following.
T1: human CD300LB-Fc (human)
T1 construct: hIgG1-Fc fusion; the entry is the whole fusion chain
T1 chain: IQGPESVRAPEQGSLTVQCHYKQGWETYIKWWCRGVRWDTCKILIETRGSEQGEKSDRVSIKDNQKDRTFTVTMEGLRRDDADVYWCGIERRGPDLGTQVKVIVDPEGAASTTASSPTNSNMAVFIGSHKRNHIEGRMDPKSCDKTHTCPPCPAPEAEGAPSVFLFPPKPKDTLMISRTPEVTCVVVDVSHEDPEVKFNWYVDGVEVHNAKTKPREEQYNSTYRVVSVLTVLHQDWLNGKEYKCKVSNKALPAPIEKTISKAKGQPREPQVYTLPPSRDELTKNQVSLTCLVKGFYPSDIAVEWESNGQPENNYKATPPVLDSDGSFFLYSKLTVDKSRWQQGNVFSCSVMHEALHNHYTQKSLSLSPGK

T2: human CD300C-Fc (human)
T2 construct: hIgG1-Fc fusion; the entry is the whole fusion chain
T2 chain: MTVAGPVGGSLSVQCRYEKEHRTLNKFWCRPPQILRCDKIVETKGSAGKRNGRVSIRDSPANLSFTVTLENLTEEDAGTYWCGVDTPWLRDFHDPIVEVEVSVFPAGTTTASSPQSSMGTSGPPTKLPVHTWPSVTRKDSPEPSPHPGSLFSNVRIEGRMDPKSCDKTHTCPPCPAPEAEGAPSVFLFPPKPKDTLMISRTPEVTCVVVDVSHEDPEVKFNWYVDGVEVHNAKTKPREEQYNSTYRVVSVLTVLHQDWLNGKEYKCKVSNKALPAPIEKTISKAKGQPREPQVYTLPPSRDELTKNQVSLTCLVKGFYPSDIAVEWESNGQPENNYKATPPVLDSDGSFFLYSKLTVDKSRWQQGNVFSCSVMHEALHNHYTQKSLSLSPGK

T3: recombinant human CD300LB overexpressed on Jurkat cells (human, UniProt A8K4G0 18-201)
T3 construct: also called huCD300LB; huCD300LB-expressing Jurkat cells
T3 sequence: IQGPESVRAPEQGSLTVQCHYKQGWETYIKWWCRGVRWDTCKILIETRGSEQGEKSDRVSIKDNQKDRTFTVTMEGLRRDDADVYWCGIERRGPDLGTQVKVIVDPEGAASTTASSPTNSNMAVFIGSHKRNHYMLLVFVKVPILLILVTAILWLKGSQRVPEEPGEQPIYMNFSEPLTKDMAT

T4: human CD300LB on primary human monocytes (human, UniProt A8K4G0 18-201)
T4 construct: Endogenous protein on primary cells; that the target is CD300LB is inferred from the antibodies being anti-CD300LB antibodies; also called Monocyte donor 1281; Monocyte donor 1282
T4 sequence: T3 sequence

B1: anti-CD300LB antibody CD-05 (antibody, V domains shown)
VH: QVQLVQSGAEVKKPGASVKVSCKASGYTFSRYYINWVRQAPGQGLEWMGWINPNSGGTNYAQKFQGRVTMTRDTSTSTVYMELSSLRSEDTAVYYCTTDQLRFGKTGPYYGMDVWGQGTTVTVSS
VL: DIQMTQSPSSLSASVGDRVTITCRASQNIGTYLNWYQQKPGKAPKLLIYAASSLQSGVPSRFSGSGSGTDFTLTISSLQPEDFATYYCQQSYSDTLTFGGGTKVEIK
B2: anti-CD300LB antibody CD-02 (antibody, V domains shown)
VH: QVQLQQPGAELVRPGSSVKLSCQASGYTFTNYWMHWVRQRPIQGLEWIGNIDPSDSETHYNQKFKDRATLTVDKSSSTAYMQLSSLTSEDSAVYYCARSGVYDDEGGDYWGQGTTLTVSS
VL: ENVLTQSPAIMSASPGEKVTMTCSASSSVSYIHWYQQKSSTSPKLWIYDTSKLASGVPGRFSGSGSGNSYSLTISSMETEDVATYYCFQGSGYPLTFGAGTKLELK
B3: anti-CD300LB antibody CD-01 (antibody, V domains shown)
VH: RVQLQQSGAELVRPGASVTLSCKASGFTFTDFEMHWVKKTPVHGLEWIGAIDPESGNTAYNQKFRGKATLTADKSSSTAYMELRYLTSEDSAVYYCTPLISGADYWGQGTTLTVSS
VL: DVVMTQSPLSLPVSLGDQASISCRSSQSLVHSDGNTYLYWYLQKPGQSPKLLIYKVSNRFSGVPDRFSGSGSGTDFTFKISRVGAEDLGVYFCSQSTHVPWTFGGGTKLEII
B4: anti-CD300LB antibody CD-03 (antibody, V domains shown)
VH: EVQLQQSGPELVKPGASVKISCKASGYTFTDYYINWVRQSHGKSLECIGDINPNNGGTNYNQKFKGKATLTVDRSSNTAYMEFRSLTFDDSALYYCAAEGAYWGQGTLVTVSA
VL: not shown
B5: anti-CD300LB antibody CD-07 (antibody, V domains shown)
VH: QVQLVQSGAEVKKPGASVKVSCKASGYTFTNYRMHWVRQAPGQGLEWMGWINPNSGGTIYAQKFQGRVTMTRDTSTSTVYMELSSLRSEDTAVYYCARDLDYWGQGTLVTVSS
VL: B1 VL with R24Q, N28D, G30S, T31N, A50G, D94T, T95P, L96W, G100P
B6: anti-CD300LB antibody CD-06 (antibody, V domains shown)
VH: QVQLVQSGAEVKKPGASVKVSCKASGYTFTTYAVHWVRQAPGQGLEWMGIVNPNSGGTNYAQKFQGRVTMTRDTSTSTVYMELSSLRSEDTAVYYCARDIVPMNNFYNYYYGMDVWGQGTTVTVSS
VL: B1 VL with N28S, G30S, T31S, A51T, S53T, S93R, D94I, T95P, L96Y, G100Q

One assay concerns the target T1, human CD300LB-Fc. Briefly: SPR (Carterra LSA), antibody immobilised, Fc fusion at 300 or 600 nM. On the procedure:
(§1) Binding of mouse anti-CD300LB IgG1 antibodies of the present disclosure to human and murine CD300 orthologs were evaluated by surface plasmon resonance (SPR) using a Carterra LSA instrument (Carterra, Salt Lake City, UT). […] A HC200M sensor chip (Carterra) was activated using the single channel flow cell with a 7-minute injection of a 1:1:1 mixture of 100 mM MES pH 5.5, 100 mM sulfo-NHS, 400 mM EDC (all reconstituted in MES pH 5.5; 100 μL of each mixed in vial immediately before running assay). After switching to the multi-channel array flow cell, the antibodies were injected over the activated chip in a 96-spot array for 10 minutes. The remaining unconjugated active groups on the chip were then blocked by injecting 1M Ethanolamine pH 8.5 (Carterra) for 7 minutes using the single channel flow cell. After priming with running buffer (HBS-TE, Carterra) with 0.5 mg/ml BSA (Sigma), the immobilized anti-CD300LB antibodies were tested for their ability to bind human and mouse recombinant CD300LB extracellular domains. Human CD300 family members and mouse CD300A were hIgG1-Fc fusions, while mouse CD300LB, mouse CD300C, mouse CD300D, and mouse CD300E were mouse IgG2a-Fc fusions (R&D Systems). Binding was assessed by injecting each analyte over the entire antibody array using the single channel flow cell. CD300 analytes were diluted to 300 nM or 600 nM in running buffer and injected in series without regeneration. Two or three buffer blanks were run between each mouse or human ortholog, respectively. Data were processed and analyzed using NextGenKIT high-throughput kinetics analysis software (Carterra).
(§2) Results of anti-CD300LB antibody binding to human CD300 family members is provided below in Table 7.
For B1, the “SPR binding (control subtracted)” value is 51.

With B2, the “SPR binding (control subtracted)” value is 21.

As for B3, the “SPR binding (control subtracted)” value was 3.71.

Take B4: the “SPR binding (control subtracted)” value was 43.

The target in the next assay is T2, human CD300C-Fc. The assay is described as above. Here is the method: as §1, §2
With B1, the “SPR binding (control subtracted)” value worked out at 0.06.

For the molecule B2, the “SPR binding (control subtracted)” value is 0.425.

Regarding B3, the “SPR binding (control subtracted)” value came out at 0.805.

For B4, the “SPR binding (control subtracted)” value was determined as 0.165.

Another assay deals with T3, recombinant human CD300LB overexpressed …. Briefly: flow cytometry on Jurkat cells overexpressing huCD300LB, apparent KD (Drake & Klakamp fit). On the procedure:
Purified anti-CD300LB antibodies of the present disclosure were evaluated for their binding affinity to either Jurkat cells overexpressing recombinant huCD300LB or BaF/3 cells overexpressing recombinant muCD300LB. Binding of anti-CD300LB antibodies to the cells was determined as follows. Cells were harvested, washed, and labeled with propidium iodide for viability discrimination. After washing the cells with PBS, 1×10⁵ cells were aliquoted per well in 96-well U-bottom plates and incubated with 100 μL of purified anti-CD300LB antibody at various concentrations in FACS buffer (PBS+2% FBS). After this primary incubation, the supernatant was removed via centrifugation, the cells washed twice with 150 μL of ice-cold FACS buffer, and then incubated with the appropriate secondary antibody on ice for 30 minutes. Following the secondary antibody incubation, the cells were again washed twice with ice-cold FACS buffer and resuspended in a final volume of 200 L FACS buffer. Flow cytometry analysis was then performed using the FACSCanto system (BD Biosciences).
To determine affinity, antibodies at increasing concentrations were used to stain Jurkat cells overexpressing huCD300LB and geometric MFI values measured by the flow cytometer were analyzed on Prism (Graphpad) software.
Background: In flow cytometry, cells or beads pass a laser one at a time.
Consider B5, for which the Kd was 66 nM.

With B1, the Kd was 15 nM.

Consider B6, for which the Kd amounted to 329 nM.

As for B2, the Kd is 64 nM.

Turning to B3, the Kd was 27 nM.

The target in another assay is T4, human CD300LB on primary human monocytes. Description: flow cytometry, primary human monocytes donor 1284, 10 ug/mL antibody, isotype control subtracted. Here is the method:
Human monocytes from various donors were isolated from whole blood using RosetteSep Human Monocyte Enrichment Cocktail (Stemcell technologies) and Ficoll centrifugation per manufacturer protocols. After lysing red blood cells with ACK lysing buffer, monocytes were resuspended in complete media (RPMI, 10% FBS, Pen/Strep, L-glutamine, HEPES, non-essential amino acid, Sodium pyruvate). To obtain macrophages from these isolated monocytes, 100 ng/ml human M-CSF and 8% v/v human serum were added to the cells for 5-7 days. Cells were counted on the day of the experiment and plated at 100,000 cells per well in a round-bottom 96 well plate. Cells were incubated with TruStain Fc block and 10 μg/mL antibody for 1 hour on ice before washing with 250 μL ice cold PBS twice. Cells were then incubated with the appropriate APC-conjugated secondary antibodies for 20 minutes in the dark on ice. Finally, cells were washed twice with ice cold FACS buffer and then resuspended in 100 μL FACS buffer containing 1% propidium iodide. Samples were immediately analyzed using a BD FACSCanto flow cytometer. The gMFI was calculated using FlowJo software minus the gMFI of the appropriate isotype control.
Consider B5, for which the gMFI was -189 gMFI.

Molecule B1 returned a gMFI of 166 gMFI.

On to B6, for which the gMFI came out at 1010 gMFI.
